# Data published in patent US20250152742A1, “COMPOSITIONS AND METHODS FOR NEUROLOGICAL DISEASES” (Trames Bio, Inc., priority 2022, published 2025).
# B1: CODA340: engineered receptor: L131E in SEQ ID NO: 33 (protein)
# chain: MRCSPGGVWLALAASLLHVSLQGEFQRKLYKELVKNYNPLERPVANDSQPLTVYFSLSLLQIMDVDEKNQVLTTNIWLQMSWTDHYLQWNVSEYPGVKTVRFPDGQIWKPDILLYNSADERFDATFHTNVEVNSSGHCQYLPPGIFKSSCPMDLKNFPMDVQTCKLKFGSWSYGGWSLDLQMQEADISGYIPNGEWDLVGIPGKRSERFYECCKEPYPDVTFTVTMRRRMGYYLIQMYIPSLLIVILSWISFWINMDAAPARVGLGITTVLTMTTQSSGSRASLPKVSYVKAIDIWMAVCLLFVFSALLEYAAVNFVSRQHKELLRFRRKRRHHKSPMLNLFQEDEAGEGRFNFSAYGMGPACLQAKDGISVKGANNSNTTNPPPAPSKSPEEMRKLFIQRAKKIDKISRIGFPMAFLIFNMFYWIIYKIVRREDVHNQ
# modifications: synthetic sequence of chimeric LGIC
# Tested on: engineered chimeric receptor SEQ ID NO: 33 and its mutants (human α7-nAChR ligand binding domain / human GlyRα1 ion pore domain) in Lenti-X 293T cells
# Assay: YFP fluorescence quenching anion reporter plate reader assay (percent quench, EC50)
# Assay type: cell-based
# Conditions: for YFP fluorescence quenching using CNL001 (percent quench): receptor named in row; for YFP fluorescence quenching using Varenicline, 3 nM var: ligand Varenicline 3 nM; for YFP fluorescence quenching using Varenicline, 30 nM var: ligand Varenicline 30 nM; for YFP fluorescence quenching using Varenicline, 300 nM var: ligand Varenicline 300 nM; for YFP fluorescence quenching using Varenicline, 500 nM var: ligand Varenicline 500 nM; for YFP fluorescence quenching using Varenicline, 1 uM var: ligand Varenicline 1 uM
# Method in brief: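 Percent quench compares mean YFP signal over the final 10 s with the 15 s baseline before ligand, added in iodide-containing extracellular solution (pH 7.2). Cells were LX293T carrying a YFP anion reporter, transiently transfected with the channel construct; plates were preincubated 30 min at 37 °C.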
molecule,measurement,setting,value
B1,YFP fluorescence quenching using CNL001 (percent quench),"1 nM CNL001, first column so headed",76.413%
same,YFP fluorescence quenching using CNL001 (percent quench),"1 nM CNL001, second column so headed",77.144%
same,YFP fluorescence quenching using TC-5619/Bradanicline (percent quench),3 nM brd (TC-5619/Bradanicline),68.57%
same,YFP fluorescence quenching using CNL001 (percent quench),"10 nM CNL001, first column so headed",78.258%
same,YFP fluorescence quenching using CNL001 (percent quench),"10 nM CNL001, second column so headed",78.763%
same,YFP fluorescence quenching using TC-6683 (percent quench),30 nM TC-6683,30.14%
same,YFP fluorescence quenching using TC-5619/Bradanicline (percent quench),30 nM brd (TC-5619/Bradanicline),76.85%
same,YFP fluorescence quenching using CNL001 (percent quench),"50 nM CNL001, first column so headed",79.757%
same,YFP fluorescence quenching using CNL001 (percent quench),"50 nM CNL001, second column so headed",79.327%
same,YFP fluorescence quenching using ABT-126 (percent quench),50 nM abt (ABT-126),2.2%
same,YFP fluorescence quenching using CNL001 (percent quench),"100 nM CNL001, first column so headed",79.011%
same,YFP fluorescence quenching using CNL001 (percent quench),"100 nM CNL001, second column so headed",79.948%
same,YFP fluorescence quenching (percent quench),100 nM CNL002,49.97%
same,YFP fluorescence quenching using ABT-126 (percent quench),100 nM abt (ABT-126),25.39%
same,YFP fluorescence quenching using AZD-0328 (percent quench),100 nM azd0328,82.48%
same,YFP fluorescence quenching using TC-6683 (percent quench),300 nM TC-6683,33.02%
same,YFP fluorescence quenching using ABT-126 (percent quench),300 nM abt (ABT-126),36.48%
same,YFP fluorescence quenching using AZD-0328 (percent quench),300 nM azd0328,82.04%
same,YFP fluorescence quenching using TC-5619/Bradanicline (percent quench),300 nM brd (TC-5619/Bradanicline),78.49%
same,YFP fluorescence quenching using CNL001 (percent quench),"1 uM CNL001, first column so headed",79.855%
same,YFP fluorescence quenching using CNL001 (percent quench),"1 uM CNL001, second column so headed",80.618%
same,YFP fluorescence quenching (percent quench),1 uM CNL002,67.8%
same,YFP fluorescence quenching using ABT-126 (percent quench),1 uM abt (ABT-126),50.76%
same,YFP fluorescence quenching using TC-6683 (percent quench),3 uM TC-6683,41.68%
same,YFP fluorescence quenching (percent quench),10 uM ach (acetylcholine),15.29%
same,YFP fluorescence quenching (percent quench),30 uM CNL002,64.58%
same,YFP fluorescence quenching using TC-6683 (percent quench),30 uM TC-6683,35.75%
same,YFP fluorescence quenching (percent quench),30 uM ach (acetylcholine),66.56%
same,YFP fluorescence quenching using AZD-0328 (percent quench),30 uM azd0328,81.8%
same,YFP fluorescence quenching using TC-6683 (percent quench),100 uM TC-6683,24.32%
same,YFP fluorescence quenching (percent quench),100 uM ach (acetylcholine),81.31%
same,YFP fluorescence quenching (percent quench),1 mM ach (acetylcholine),80.77%
same,YFP fluorescence quenching (percent quench),3 mM ach (acetylcholine),77.31%
same,"YFP fluorescence quenching using Facinicline, 30 nM fac",ligand Facinicline 30 nM,82.51
same,"YFP fluorescence quenching using Facinicline, 100 nM fac",ligand Facinicline 100 nM,83.6
same,"YFP fluorescence quenching using Facinicline, 300 nM fac",ligand Facinicline 300 nM,82.92
same,"YFP fluorescence quenching using Facinicline, 30 uM fac",ligand Facinicline 30 uM,82.68
same,"YFP fluorescence quenching using TC-6987, 1 uM tc6987",ligand TC-6987 1 uM,80.13
same,"YFP fluorescence quenching using TC-6987, 10 uM tc6987",ligand TC-6987 10 uM,81.29
same,"YFP fluorescence quenching using TC-6987, 500 uM tc6987",ligand TC-6987 500 uM,79.6
same,"YFP fluorescence quenching using Varenicline, 3 nM var",first column,−4.061
same,"YFP fluorescence quenching using Varenicline, 3 nM var",second column,−0.568
same,"YFP fluorescence quenching using Varenicline, 30 nM var",first column,62.964
same,"YFP fluorescence quenching using Varenicline, 30 nM var",second column,63.631
same,"YFP fluorescence quenching using Varenicline, 300 nM var",first column,74.912
same,"YFP fluorescence quenching using Varenicline, 300 nM var",second column,75.084
same,"YFP fluorescence quenching using Varenicline, 500 nM var",first column,76.346
same,"YFP fluorescence quenching using Varenicline, 500 nM var",second column,75.876
same,"YFP fluorescence quenching using Varenicline, 1 uM var",first column,75.805
same,"YFP fluorescence quenching using Varenicline, 1 uM var",second column,74.856
